Measured values published in the DeepSol protein solubility set.

Assay: soluble on expression in E. coli; label from the status in PepcDB or PDB records

Row | Sequence | soluble on expression in E. coli
1 | MKEDWYRKMYGPSASKTYETSLFNLITSEFGYIGGPDVVKLFTKKIVELNNQYYLREEFVRPGQMRWLVLKAGQKYSKSKKLSEMQLIPVTLTLINPEDIEDRITKVKKNELIEKLIVRLCNETKEQGGVLTETDIAILFRLSCTMISNHVTSYEKRTKKVIPRAGTEMDMGKSLTHKRLAFHNYKKKIPTSENARLIDHTPESVDRYIKDGTRIEKLYAAGYDEWNMAFFTGLPIYVVQEYVEIIKSYEKEKNDKKDIENQ | not soluble
2 | MAHHHHHHMDDYHDDDVHSNYGYEDDEYDDAADDWEAEAAEEEQRAVAEEAARQARLEKKLATRAPVKKEEEEEAVPEDVERAMADMRQVANDIASGSALLSGGDSEELIGNHKLASDADVERVGTMIADRLTSFSDSGHYDKLIVEVFQRLTNHLTSTHLLNEEADRVHRLREELKRAAKAKLKPVEKAPVTQSGLDLDNFEDRGGAAVADNEDETGW | soluble
3 | MNKVKILAIVGSLRKGSYNRQLALAAKEIVKDTADFTLLDYQDVPLMNEDIEYPAPDAVKRVREEVKAADGIWFFTPEYNHFFPGVLKNLIDWLSRPVSENEPQVLAGKPAAISGISLGMSGTAIAQDHLVTLISFLDMKVMNVPRVTVPNAWQYVDDQGKLIMESIYPHLEKQAKAFVNFIQAKCL | not soluble
4 | MGSDKIHHHHHHMFDKQEFVSKLVTEEKAKIVLLVMDGLGDIPVNGKTPLQAANTPNLDNLAKESDLGQTIPVLPGITPGSGPGHLSLFGYDPIKYQIGRGILEALGIGVEVGEKDVVARANFATWDGKVVLDRRAGRPATEESAKVVQLLSEKIKKIEDVEITFYPGKEHRFVVKFTGEGLGDKVTDADPQKEGHPMVWAEGLDEPSKKTARIVNELIKKIAEVLKDNPKINFALIRGFSKYPDLPKFPQVYKMKAGAIATYPMYRGLAKLVGMEIIETGQTVADEIKTLKEKWNDYDFFYVHVKKTDSYGEDGKFEEKVKVIEEVDAIIPEIVSLNPDVLVITGDHSTPVPLKAHSWHPVPLLIWSKYTRRGLSQAFNEFECARGTLGTIHASDVMTLALAYAGKLEKFGA | not soluble
5 | MGSDKIHHHHHHVNDGSNDFELLGSPWICENPHANWTAPAAHGMFKRFKKKEIIIHSGDQIDYIYYLHKGRIKTVAQSPSGSQKILWYIEAGSIFGETPFFNRKPCDYNFFAVTDCEIYIYPMEVIMQEIIPKFPDLTLSIIKTLSRKVHILSTQVEDCVFNKPLVRVAKLIYLLHQGRILEDKRGSSSIPLTQEDIANTLGMHRVTVNQALKHLKEIQALKEHTHLIIIHDPEKLKEVMEA | not soluble
6 | MSLFYANMKEFELIKLVERLFGDEDVITPAGKHDAAYVKIGNRLIVLTCDTVNEKSDFPPYMLPEEMGWMAIAVTLSDVAACGARPLYFLSSISLKSIEFFEDILLGIKRCADRFGVKVVGGDIDFSEITTIAGFAIGEARRHITRRGAKVGEGVFITDLPGKAQLCLEMLERGAKREELPYAEKLYTPVPRIEEGMRIARYASAMTDVSDSLAVSLHQISQSSNVKIVLDNIVLSHLSPAENALELFLYGGGDFELVYTAKSSDDGIRIGRVERGKGVFAEIDGKTFEVEFRGYSHFEGHHHHHH | soluble
7 | MRFRPFTEEDLDRLNRLAGKRPVSLGALRFFARTGHSFLAEEGEEPMGFALAQAVWQGEATTVLVTRMEGRSVEALRGLLRAVVKSAYDAGVYEVALHLDPERKELEEALKAEGFALGPLVLAVRVLGSRGARGETRGVLE | soluble
8 | GPGSMLYRTAVPVPADALVQRNLEFTRTAWKAGLRPDQRDANQLRVVEIDFPLLSRDVVQVKCGNTVATATISCDLVEPSPYRPKHGFFEVHARQLLNERDPLDQSKEIKRISMYLTRLLSGSVLETESLCVIPGRRVWSIDAEVIIVNNDGNAQDVAQWAVMTALQHVRRPELTIRGEDVIVHPPHERDPVPLPLHHIPLSFTFAVCANPQEVQLAVRAATLRSAHAPRAGASSGANADEGDGEAEELGWSSDALQVVVDPSLEEATAAACTVSVALNGEGHVCSLEKADGCYVSIAYLEQCMEIATKLTQALLSQMKESMEAHNAKRTEAVRSQFLWAQQRHGIQAIATPGDEGEHARKSAKTEK | soluble
9 | MPTIQQLVRKGRRDKISKVKTAALKGSPQRRGVCTRVYTTTPKKPNSALRKVARVKLTSQVEVTAYIPGEGHNLQEHSMVLVRGGRVKDLPGVRYKIIRGSLDTQGVKNRKQARSRYGAKKEKG | not soluble
10 | MTQNHSASLLVELLTEELPPKALARLSDAFAEGIAQRLAARDLIEGELAFERYATPRRLAVVVQNVRAVAPERQVREKVLPVSVALDAQGKPTAPLAKKLAALGHPNLSIADLERAHDGKAEAFFVNYASPGATLAEGLQAALDETLAKLPIPKVMTYQRPDGTDVQFVRPVHRLSALHDDRIVPVCAFGIDAGDTTLGHRFLSDGLVAIQHANAYADTLRDKGRVLAHFAGRKEAIRAQLEANAGGDQVVMPEALLDEVTSLVEWPVVYPCRFEDEFLQVPQECLILTMQTNQKYFALTDAAGKLRSRFLIVSNIETKTPDEIVEGNERVVRPRLADAKFFFEQDKKKPLADRVPLLANVVYHNKLGSQLARIERLETLAGEIAPAIGADATVAIRAARLAKADLLTDMVGEFPELQGTMGTYYARHDGEAEDVAIACSEHYQPRFSGDALPTTPVSTAVALADKLETIVGIWGIGLAPTGEKDPFALRRHALGVLRLLLEKQLPLDLVWLLRTTYERFAAVPDVAESTDAIHAFFVERLRGLLRERGYTAGEVDAVLSLNPTR | not soluble
11 | MDKIYIHDMEFYGYHGVFPEENKLGQRFKVDLTVELDLKRAGESDDLEHSVNYGELFELCRKVVEDRTYKLVESIAENIATDILKQYESISRCTIKVIKPDPPIPGHYRAVAVEITRERP | not soluble
12 | MTTSPTENAHAVVLGGSVAGCLAAAVLARRYPRVTIVEKSDFHNETGARQSVPQEHHVHLLLQRGKDIMEAIFPGFLSELEQAGALVADLGHDVKWYQAGRWKNRYRCGIHAHYCSRRLIDTHLRRRVARLPQVTVLSRTQMEGLDFRRDGDRLAVGGVRLRNDDHAWTLDADALVDASGRGTRLPGWLETAGLGAVDKSMVKTDLGYASRIYRRRPEFANQWKVLLVLATPPHQRAMGVISPIEGDRWMVTTGGWFGHYPDRDPNAFLKALAALPMPDIHQVIRDAEPLSDVSVFRMPGSLRRHYDRLPRWPDGLLVVGDALASMNPLYSQGMTLCALEAECLDENLDALLAGGLRCQELQEKLCRALDPAWQMAVTEDLRFPETEGERGWRTRFLHWYGAGLTRLSAYHRGALEAQIGVSNLIVNPSRLYAPPIAARIVLGSLLPGEARTLEHHHHHH | not soluble
13 | MTKIAFVFPGQGAQKVGMGQDVAAEYPEAKKIYDDADERLGFSITEIITEGPIELLTKSENAQPALVSTSVAILRALETYGVKADYVAGHSLGEYSALVAGGFLEASDAIYLVRKRGELMEAAVPNGAGAMAAVLGVDRETLKTITEEVTKEGDAVQLANLNCPGQIVISGTTAGVEKAGEKAKESGAKRVLPLAVSGPFHSSLMEPAALAFRDVLAEVKISDGQIPVVNNVDAKETTDKSEISDKLIKQIYSPVLWEDIVEELIKNGVDTFVEIGSGKVLAGLIKKINRDVTVLSAGDAESVKSVAATLKGE | not soluble
14 | MDVNTTYTKELSIIVPIYNEERELPELVRRLSAAAASITEDYELIFVNDGSRDGSMELLRSLCKGDDRFFYINLSRNFGHQIAVSAGLDHVRGKATVIIDGDLQDPPELIPELYAKYREGYEVVYAQRKHREGETWFKKATAKGFYRTMRKITSIDMPLDTGDFRLIDRKIVQCLREMPEQNKFLRGQIAWMGFRQTGVQFDRDERKYGQTNYPLRKMLALAIDGITGFSSRPLEWVAQ | not soluble
15 | MDMTYNMRNAMASSRNMEEPQYDMSTIDLTQNSMNTNYLMNGSVLTNAYNNDYIVNNRDKYTGDMISQLKIDQGIPTYSHTLPMNGTTLADTNDSLNIQGMMRTNMDTTGFDGYSHIMNYNNTQNTIQTNPITYRMEDYNNLNNDVMYINPTTGEKFSAEYVNNIPTNDSDNMLYSNNFKNNSINMNTLLNSHYNNLPYPMPIYESMNNPQMYMQHMNQKQTVNIPLQHGEKKSAARNISTVNKRRIKTKKFFPCC | not soluble
16 | HLKFQSVFDIIGPVMIGPSSSHTAGAVRIGKVVHSIFGEPSEVTFHLYNSFAKTYQGHGTDKALVAGILGMDTDNPDIKNSLEIAHQKGIKIYWDILKDSNSPHPNTAKITVKNGDRSMSITGVSIGGGNIQVTELNG | not soluble
17 | MGSDKIHHHHHHMEKFIESVANFIDEEDVKVLKAIGSDPIVLHSIKKIFDYPEKANKYLILLRDSPVAVYLVAKISERLSRYLEGEDEAKCFAVFLTALRELRECGDRRVLQNMFLLLKEAIERRLSDGKYEDAAKLVMEFQDFGFKSYVKKVLFFALEVSEEGDYRRAMRILELLPETDAVIDAKASVLLEWGRSLAMSNPEAGMKKIEESLRLKDTVEARLAMAEIHESMGNYEKAYFIYTSLRSLYPGIDRRIARMLMEWGEEIGDVEKLREAYNLAMGDRLLAEEIERRIKKLEAQRLSGS | not soluble
18 | MSLAIRVVCISDTHDLKVDIPRGDILIHAGDLTDGGTVSDIQKQLDWLKEQPHPIKVVVAGNHDSWFDQKSRPEEDARSGAKPDMDGLIYLESGLTVQKVKGRTVNIFGVPDIPEIGPKEFAFQYATDNHPWLSKVPPQTDILVTHCPPKHHLDLGLGDSNLLREVWRVKPRLHVFGHVHCAYGKESVFFDNFQQTYERIMSRPRRGPILDFIPNEAWLDEGHHHHHH | not soluble
19 | MMEMRVGIVGGGLAGLTAAIALAEKGFDVSIIGPRSTDSNSYLAQAGIALPLLEGDSIRIHVLDTIKAGKYINDEEIVWNVISKSSEAHDFLTSHGVTFTGNELEGGHSYPRIFTIKSETGKHIIPILEKHARELDVNFIRGFVEEIGINNGKLAGVFLQGELLKFDAVVIAAGGFSGLYRFTAGVKNNIGLLIGDVALKGVPLRDMEFVQFHPTGFIGKRTYLITEAVRGAGAKLVTGDGERFVNELETRDIVARAIYMKMLEGKGVFLDARGIENFKDRFPYIYSVLRGEGINPEKDLIPITPVAHYTIGGISVDAFYRTRIKGLYAIGESACNGFHGANRLASNSLLECVVSGLEVARTISREKPKREVNDAPYSFNELGDVDSIREVLWNHAGIVRDEWSLREGLRKLKEIEVDERLKLVAKAVIISALKREESRGAHYRKDYPFMRKEFEHSSFFYPNV | soluble
20 | MGSDKIHHHHHHMERLAQPSRFLQRKLFEVNLLKPVTVEKEAPIGEIRRILRDTGSRIVLVVNGEGRLEGVIYRSSVILVTSRKSEAKALDIMEEPAVVLKPSYSLEEAVFSMLKFDEWYAPVVNDANRLVGVLGLETPIRLLLEAGFYRGYTASDAMTRDVEYVLEGDSLTRVWEIMVERRYAGVPVVDQRMVVRGIVTQYDLIRKGYTRLGLESEAPPHRVRVESVMTRSVIYVAESDNLEDVARIMLDRGVGRVPVVKSRDSRVLTGIIDREDLVRLYFKSRGRASL | not soluble
21 | SLNGKYATLKDVAKLAGTTASTVSYVLNDSKERYISDEMRRRVLEAAKDLNYVKCSVASSLKGEKRKIIAVLVPQFSNQFFTRIILAIENVADQFDYVLTIYNTFDDPKREKVIINRMAQHRMDGYIIIPTYEGVKNTEQLRKIGIPMVVMDRPLEGIDDFIWVTTNNYQCGYKGAHYLALKGHRNIAFIGWNSRINDLDSRKNGFWDALAASGITSEEAIVIDGEFSEEDGYKMTKNLLKTRPDITAIFYGYNVQAQGGVRYLMKENIEIGKDISVMLIGSPEWAVTGYNNFTHIEQDEYNLGKSAATILFSIINGENQENIQNIIQDCSLYEGNSVYDITKEG | soluble
